From the DeepSol protein solubility set

Assay: soluble on expression in E. coli; label from the status in PepcDB or PDB records

Sequence	soluble on expression in E. coli
MPMVLVVLDHDGNRLKKGSLEALTRARDLAQALGGKVAGVLLAEEKAPVEEARKYVEVLYTATLGPYTAEKWAAGVLKAAEASGAKAVVAPSSRQSRAYLGRVAYALRAGLLEDTLESRVEGGEVHATRYAYLNRVTQRVKAALPVVLTVKPNTTPLAEPLPGEAEAVALSVPEVPTVEVLERLQEEKKGVSLTEADVVVTGGRGMGSPEAFKLVEELAALLGGAVGATRAVVDAGWRPYAEQVGQTGKTVQPSLYIALGVSGAVQHLAGMNKSKYIVAVNKDPEAPIFKHADYGIVGDVHQVLPALIEAVKKLKD	soluble
MGSDKIHHHHHHDKAYTDAESYTKGLHKIYSVWALSGQDGSSSSDISGLDAGNTALLRCWWTLQEQPTDEMKNAWNDAWCTEVNYMTWTTNKVEPIEGVYQRCMYIVALVNEFLKNIPNAPESIDKESYIAQARFNRAFAYYVLMDMFALPPFITEKNYSIEPAPLSREDLFNWIEAELNEIKPNLPSPRSEYGVADQAVASALLARMYLNAEIYTGKARYTECINACNEVIKAGYQLADNYADLFKADNGENPDTKKEIIYPIIFDGDKTQSWGMAAIIIGARGAEDKDVLLAHSGVDQGWAGFRATSNLVHLFDFQNDEEPKASEIQDKRGIFYDKGRSIDITSSVSGTFETEGWSVFKFSNLNSNGQPGKNTLWVDTDFPMFRLGDIYLMYAEAVARGGEGSKASAVEYINALRKRAYGDDKHNISENWLEENNFRNLLDERGRELYWEGIRRTDLVRFDLLTSGSYTWDFKGGINTGVGVNKRYNVYPIPVTDLTVNGNLQQNEGY	not soluble
MERDTVVKEVVEALKIFSRDIRTQIDEMGSQLRAEIQDTANQLRAEIQDTANQLRAEMQETANQLRAEMQETANQLRAEMQQFRAEVNERFDRLEQKFAGLRVELTETQETVHFLASKTIQHEKKLHHLAKQLESIR	not soluble
MGSDKIHHHHHHMSTARLVLLGGFLGAGKTTTMIKSALKLEKEGYRVAIVTNDQGKELIDTELARANGLESKEVTGGCFCCQFDDLYNNLNTLMKEKQPDVIIAEAVGSCTDLAATVIQPLKQYYADKFKTAPLTIVVEPARLLHELNLDENTKPFFSQSVSYIFEKQLAEADIIALNKVDRYSEEEIAKLKAYLQQRYPQTIIQTFSAERGDNLEALTHTWLTTDLGGDKVLDIDYELYAEGEAQLAWMNILGDIKAEQDINPREWAEKLLDNLNKHFIREKMAIAHLKVHVGFEGGYVKASMVQTGDAPTFTVENVKEGKEFRIVLNIRIEATPAILNLVVADSIGAINKELGSNWSETYNECFSPLPPKPVHRLYETV	not soluble
MSLQLDLLPPQDRGQVHSVFVVVPRFNLTTLITMIETMRIGNYLSSERLFSWEVTSFDGLNLGASNGVRVHLDVEPDQTAPADQVFVLASWGGEHYQNKALASWLRKRARQGERICAVELGCYLVARAGLMDGKEATTHWSWINGFQEKFDQISVVEQLFTIDGRILTCAGGMAGVDLMLRLIEQSHGAGFSGEIADQMLHNEGHHHHHH	soluble
MGSDKIHHHHHHMKKRFKYRTLEEMRWEAITLGIDLPLSGDFDVFRDLVDLGSKTIPNRFVDQPMEGNDAQLDGTPGPLTLRRYRKLAEGGAGVIWVEAIAVSREARGNDRQLMLTEETVNSFRSFVAEIKSVSLKTKNFEPYIVAQLTHPGRFGKNRKILFHDKFLDEKYGITEDFPLMSDEELDSLKEQYLRAAKFAKTAGFDAVDIKACHRYLLSELLAAHTREGKYGGSYENRTKLLKDIVRLVRKEVEIDITVRLNLSDFIPYPYGWGSTEEGTLDFTEPGRLLKELEELGVKIINVTASTPYLKPHINRPYDEMGKYNPPEHPIVGAMRLLNLAKLAKETLSKTLVVASGFTWFRQFAPYVAAGMLKNGWCDFVGFGRMTFAYPDYPKDILTKGELDPKKVCITCNKCAELKAAGESCGCVVRDGEVYLPIYRKMEESKKS	not soluble
MGSDKIHHHHHHMLKKSNIQWTAKQIAKMMDKGTLGFDNSVQRGLCWKTDKKILLIDSMFQNYPIPAFYAARNEDKTYDMLDGKQRCHAIKEFIEGKFKLDGIEEVELEDGESIDVNGMSFEELPEELQDRVKDYSLTVYFFLDLSDDQVSEMFYRLNNGKALSAIELTRVKAKSFDAIRELGNHEIFKNALTLKQVNKYTNEDIVIKTYAMLYTENPSFETKKIRPLMQDVEFTEQQKEEIKKAYSKILDIWKAINTEDKEHKKIAKRILTRTHLLTIIPIVIKSDKTIEELASWLLKFYSGKRRASISEKYNSAAGSGSARSESIKIRLEELKKDYNEYFSNQDEEINKKIEEIFKEGDSIE	not soluble
MVINQNEAHAIQRIDSDEEPTVSVVDVVATVATPHFDEPLKRKWRLKCAEYGTFMASLLDTDFAEHVTAHQVRCDGVRFKVKLRVEEAKGRSPRFEILAMSPEDSSGVQTLL	not soluble
MADSAELKQMVMSLRVSELQVLLGYAGRNKHGRKHELLTKALHLLKAGCSPAVQMKIKELYRRRF	soluble
MAFEFKLPDIGEGIHEGEIVKWFIKPGDEVNEDDVLLEVQNDKAVVEIPSPVKGKVLEVLVEEGTVAVVGDTLIKFDAPGYENLKFKGDDHDEAPKAEATPAATAEVVNERVIAMPSVRKYARENGVDIHKVAGSGKNGRIVKADIDAFANGGQAVAATEAPAAVEATPAAAKEEAPKAQPIPAGEYPETREKMSGIRKAIAKAMVNSKHTAPHVTLMDEVDVTELVAHRKKFKAVAADKGIKLTYLPYVVKALTSALREYPMLNTSLDDASQEVVHKHYFNIGIAADTDKGLLVPVVKDTDRKSIFTISNEINDLAGKAREGRLAPAEMKGASCTITNIGSAGGQWFTPVINHPEVAILGIGRIAEKPVVKNGEIVAAPVLALSLSFDHRLIDGATAQKALNQIKRLLNDPQLLVMEA	not soluble
MSLEYKYDVVIVGLGPAGSSLAYLLKDTGLKVAGLDIADFNRVWGKPCGDAIGKGHFLETGLPLPKGEAMMQVVNAVDIYSPSEEVKIRLSEPEGGFMIDRNKYGLQLLEEAQKSGVDVYLKTHALSPIIENGRLVGVYAKRHGEDGDVNVKFYSKIIVDATGSGGAIKRKLPSSWPVVEPLKPTDSAVAYRKIVELDYDIEEPDVIRIYINADIAPGGYWWLFPKGRRIANIGIGVQRGRGYPHPRHLYEKYLDKRPDTGRVVRLLNEAGALLPTRRPANTIVWDNFVSIGDNAYTVNPVHGGGMGYAMTAAMYAARGIEKAFEKGDYSVETLWDINLGYMRSTGAKQAGLDILRIYLQTLTNEEVEWAMRNGLANVDNLVEASTQGEIKRLNLTLLEKAKVLARLLGRPTKLMELLTVAEYMSKVKKLYYEYPERPDGLPRWVDRVETLYREYKARLGIDWEGHHHHHH	soluble
MQSAYSFLPQVIAHRGSSGQAPENTLASLHLAGQQGIKWVEIDVMLSGDGIPVIFHDDYLSRTTDGDGLIYKTPLAELKQLDAGSWKGQEYQQETIPTLLEAIEVISQYGMGLNLELKPCEGLEEETIAASVEVLKQHWPQDLPLLFSSFNYFALVSAKALWPEIARGYNVSAIPSAWQERLEHLDCAGLHIHQSFFDVQQVSDIKAAGYKVLAFTINDESLALKLYNQGLDAVFSDYPQKIQSAIDSHIN	soluble
MSEQPASLDPVSKQIIEQLQEDGRRSYSAIGKVVGLSEAAVRQRVQKLIDTGVTQIVAVTDPVQVGFSRQAMVGIRCSGDVTEIAARLADVDAIDYVVLTAGAYDILAEIVCENDDHLLAVLNKEIRTIPGVLGTETMVYLKLVKQQYDWGTR	not soluble
MGSDKIHHHHHHMSIEQLADLTQPQRDRLAFVELRVRFIGEIRRQDLVSRFGIQSAAASRDLALYKELVPGNIDYDSKGKSYVLGPDFRPLFEFPPERVLSWLTQGFGDGEPMQLKAWVASESPSRLARPDLTVLASVTRAIHQGCPLAVEYHSISSGKANRQIVPFALIDDGQRWLVRAFDRESQQFRDFVITRIRNPQVLKGENPAPHEASDQDIQWTRILELDLVPHPNRPHPEISEMDYSMERGVWKMKLRAAMAGYILCKLRVDCSPTHKLNGSEHRLWLRNHLALYGVRSAVLAPGYESPEPVGQEQDGD	not soluble
MLIAQEQEQSSISLLAEVSRAVNNEEDISKVLRLVLFILSEHMNMLRGMVTILNRTTGEMVINESFGLTDEQRQLARYKVGEGIIGQVVKTGRPSVVPRINEEPLFLDRTQSRAEENKEELCFICVPIKVGREVIGTLSADRRISVPAENGDKKLWRKSDRIDVLQYYVDLLSIIAAMIAQAVRIKQLDDEKS	not soluble
MGYNTIPAGKDLPNDIYVAIEIPANASPIKYEIDKDMDALLVDRFMATPMFYPANYGYINNTLADDGDALDVLVITPYPVAPGSVIRARPVGVLKMSDEAGGDEKLLAVPHEKLTQLYNDIHDIDDVPQLLKDQIVHFFEHYKDLEKGKWVKVEGWENADAARAAIVKSAAAYKG	soluble
MGSDKIHHHHHHVEQTQTRVYQYKFVNSISNIDSLIWNIFFGSSHPFTRHEYLSALEMSRCVSTETGWTPMHLIVMDGDNIIALMPLYLKSHSWGEYVFDWAWAEAYERHNIGYYPKLVGSIPFTPTTGRRIGIDPRLPKHDQQPLIDGIQTYLSQTVIKQGWSSWHCLFTNTEQHLQFAQAGVMERVGCQFHWHNQNYADFNDFLSTLTSRKRKNITKERISARQQLQFRFIDGDKASAQQWQNFVRCYQNTYLKRSGHKGYLSAAFFEQIAATMGSMIRLLLIENSDAQLVASALYFVSDTHLYGRYWGALTECDYVHFEACYYQGIEYAIANQLLVFDAGAQGEHKVARGFRPVKTTSSHFVAHEGFNDAIGAFCQQEQAHIDIYIQQMCEQLPYKSIDNT	not soluble
MGHHHHHHSHMVAHNQVAADNAVSTAAEPRRRPEPSSSSSSSPAAPARPRPCPAVPAPAPGDTHFRTFRSHADYRRITRASALLDACGFYWGPLSVHGAHERLRAEPVGTFLVRDSRQRNCFFALSVKMASGPTSIRVHFQAGRFHLDGSRESFDCLFELLEHYVAAPRRMLGAPLRQRRVRPLQELCRQRIVATVGRENLARIPLNPVLRDYLSSFPFQI	not soluble
MAFRKRRHDSEGDSDEERLPINKDEDEDLKAEPAKKSKNMWSDMLLEEQLLEKGQQINLDRTSRKQPNVSRGPESYLMPQDEFQRKQSRNANQKKKNEVFDKPVVLVTPASDDLFGDAPSALNEDFGVKKNDVKLPKDDEAGWWGKKGANKRYNDRMGYHSGGPRQPYPRKTTGQLMASEYSLESMVAAEFAPNLSTKELGTQMAAAMGEKDPDTVKKITNAIGSELSIKLFNETKEIEQNGGMKTADGSRRRTPGGVFITLFKMDSSVSREIKDGIFGDMRNAEKERTKKKKGEKQFTRQLEDMKKTMELAAQAETDLANEEQLATAVDAPFSDDAVDMV	not soluble
MDIFPGRLYLKKEVETVEGLQEILAISANRCFRCGNTNPFLFGKMTCASCDREDCLYCRNCIVMGRVNSCQKLYYQKADILPERIESCLGWEGTLSPGQKKAASAVVSSIKQKVDMLLWAVAGSGKTEMMFEGMDLALKQGFRICIASPRVDVCLELYPRLQAVFKEIDIVCLYGDSKDKYQGEQFVVATTHQLIRFYDTFQVIFIDEVDAFPYAKDPFLEYAVRKARTKVGSTIIITATPEKKWQQECATGKRNFVKIPARYHRKQLPVPRTCWIGPWKKNLAQGKITLKLINWIKKAELKNQPVLIFFPEIEAMNQFAEALVNYDFTRPVTVHSADQLRKEKVEWLREGKIKLLLTTTILERGVTFKDVQVAVFGSEGRIFTEAALVQIAGRAGRKLTHPTGDVCFFHYGKTTEMNRAITHIKKMNQLGFKEGLLDD	not soluble
MDDLPYLARGVMPVETPSSVLVSSSKYLNNPRLREWLAMILLRKNGPDFPPPAEMYEFLPILEELRDHDRIEAMFAEERRVNPELDAWLSEGFYSTYAIEDFRQFAPGTLGGIFYQWITEGNYEIQITPWREPKSQLEFYNLRSGQTHDFEHILCGGGFNFMGELVPYWYRLTNVFKHIRNQELAAELSMIQIFGSLRYTVRTMLHYPQIWMTCVDAIQRGMKVGQESDALFMKKLEPHFHLPLEEARAALGVRGAVDVDTEIEGAFWAGRAPLSALTERIAAELEHHHHHH	soluble
